This is an account of results in US7303752B2, “Hookworm vaccine” (The George Washington University, priority 2001, dated 2007).

“And” between values parts separate entries of the source, which are not always exact repeats. Equal entries are not always repeated.

One assay deals with recombinant Ac-CP-2. Description: Proteolytic activity of recombinant Ac-CP-2 against Z-Phe-Arg-AMC. Format: biochemical, Ancylostoma caninum. Here is the method: Purified, recombinant Ac-CP-2 was assessed for proteolytic activity using the fluorogenic peptidyl substrate Z-Phe-Arg-aminomethyl coumarin (AMC) (Bachem). The pH optimum of Ac-CP-2 was assessed using Z-Phe-Arg-AMC at different pH values according to published protocols. The cysteine protease inhibitor E64 was included in some assays at a final concentration of 5 μM. Recombinant Ac-CP-2 was treated with PNGase F and O-glycosidase, according to the manufacturer's instructions (Enzymatic CarboRelease kit, QA-Bio), under denaturing conditions to remove any N-linked and O-linked oligosaccharides.
Canine IgG was purified from sera of vaccinated dogs using protein A-agarose (Amersham Biosciences) as previously described. Purified IgG (10-500 ng) was incubated with 1.0 μg of recombinant Ac-CP-2 for 45 mins prior to assessing proteolytic activity as described above.

Assay [1] has as its system A. caninum. Briefly: Canine vaccine trial with Ac-TTR and SBAS2, L3 challenge: worm burden, blood loss, worm size. Format: in vivo, dog. The protocol: E. coli derived antigens Ac-MTP-1 and Ac-TTR were tested in vaccine trials in dogs. Antigens were administered with adjuvant SBAS2. […] Subsequently the dogs were challenged by subcutaneous injection of L3 hookworm larvae.
Animals were also tested to ascertain whether vaccination with hookworm antigens protected against blood loss. […] Using the Mann-Whitney test, the differences in both hemoglobin (38B) concentration (P=0.036) and hematocrit (38A) concentration (P=0.009) between the TTR and adjuvant control groups were statistically significant.
Further, the differences in hemoglobin concentration translated to a statistically significant reduction in worm size. Data was collected using an imaging system based on scans of the worms recovered from a host. Worms were photographed with a CoolSnapPro digital camera (Media Cybernetics), and the images measured in ImagePro Software using a macro to determine worm length (in mm) compared between treatments. As shown in FIG. 39 there was a statistically significant reduction in worm size (between 1 and 2 mm) among the TTR vaccinated group relative to the adjuvant control group.

A further assay has as its system anti-ASP-2 antibodies. Briefly: ELISA of canine IgG1, IgG2, IgE after Ac-ASP-2/AS03 vaccination (Example 12). Format: in vivo, dog. Here is the method: This study was conducted and reported in compliance with the intent of the Good Laboratory Practice Regulations (F.R. Vol. 43, No. 247, pp. 60013-60025, Dec. 22, 1978 and subsequent amendments). The study was audited by Quality Assurance while in progress to assure compliance with GLP regulations, adherence to the protocol and standard operating procedures. The data and final report were audited by Quality Assurance to assure that the report accurately described study conduct and results. The vaccine trial was designed to test Ac-ASP-2 formulated with Adjuvant System 03 (AS03) 44 obtained from GlaxoSmithKline. The rationale for selecting AS03 as an adjuvants is discussed elsewhere 37. The ten purpose bred beagles were randomized into two arms: immunized with Ac-ASP-2 (SEQ ID NO: 20) or adjuvant only (control). To make six doses of Ac-ASP-2 (SEQ ID NO: 20) formulated with AS03, 600 μg of recombinant protein (0.3 ml of Ac-ASP-2 (SEQ ID NO: 20) at a concentration of 2 mg.ml^−1) was mixed with 1.2 ml of 20 mM Tris-HCl, 0.5 M NaCl, pH 7.9 and 1.5 ml of AS03; the contents of the tube were vortex mixed for 30 seconds then shaken at low speed for 10 minutes. […]
Beagles were immunized with formulated Ac-ASP-2 (SEQ ID NO: 20) as previously described^37. […] Each animal's specific antibody response was evaluated by indirect ELISA using serum taken prior to the infective challenge^37. […]

Assay [2] has as its system antibody to recombinant proteins. Description: Pre-challenge antibody titer ELISA, trial with Ac-ASP-2, Ac-API, Ac-MEP-1, Ac-APR-1 in AS03. The format is in vivo, dog. Here is the method:
(§1) The vaccine trial was designed to test Ac-API, Ac-ASP-2, Ac-MEP-1, Ac-APR-1 formulated with Adjuvant System 03 (AS03) obtained from GlaxoSmithKline (GSK). The rationale for selecting AS03 as an adjuvants is discussed elsewhere (Stoute et al, 1997). The ten purpose bred beagles were randomized into five arms: immunized with the adjuvant-formulated recombinant proteins or adjuvant only (control). To make six doses of antigen formulated with AS03, […] of recombinant protein (0.3 ml of antigen at a concentration of 2 mg.ml^−1) was mixed with 1.2 ml of 20 mM Tris-HCl, 0.5 M NaCl, pH 7.9 and 1.5 ml of AS03; the contents of the tube were vortex mixed for 30 seconds then shaken at low speed for 10 minutes. Dogs were immunized with 100 g of formulated antigen in a final volume of 0.5 ml. ASO3 only control was prepared as described above, with PBS included instead of antigen. Formulation of GSK adjuvants were conducted according to the protocol provided by GSK. All injections were performed intramuscularly (IM). Test and control articles were prepared on the day of injection. All animals received 4 immunizations approximately 3 weeks apart.
Beagles were immunized with formulated Ac-ASP-2 as previously described (Loukas et al, 2004). The vaccines were administered IM three times beginning at age 62+/−4 days. Boosts were administered to the dogs at intervals of 21 days. Blood was drawn at least once every 21 days and serum was separated from cells by centrifugation. Each animal's specific antibody response was evaluated by indirect ELISA using serum taken prior to the infective challenge (Loukas et al, 2004). Recombinant Ac-ASP-2 was coated onto microtiter plates at a concentration of 5 g.ml^−1. Dog sera were titrated between 1:100 and 1:2×10^6 to determine endpoint titers. Anti-canine IgG1, IgG2 and IgE antibodies conjugated to horse-radish peroxidase (Bethyl Laboratories) were used at a dilution of 1:1,000.

For assay [3], the system named is A. caninum. Briefly: Canine vaccine trial with Ac-ASP-2, Ac-API, Ac-MEP-1, Ac-APR-1 in AS03, footpad challenge with 500 A. caninum L3. Format: in vivo, dog. Here is the method:
as §1, with “The ten purpose bred beagles were randomized into five arms: immunized with the adjuvant-formulated recombinant proteins or adjuvant only (control).” left out
A. caninum larvae were cultured from eggs collected in the feces of infected dogs. All hookworms in the infective challenge were approximately equal age (17±7 days post hatching). The species identity of the infective larvae were validated using PCR. All dogs were infected by the footpad method with the same dose of 500 L3 of A. caninum (Zhan et al, 2001). Larval challenge occurred on one of three consecutive days (at age 120+/−9 days). Fourteen-sixteen days after the final immunization, dogs were anesthetized using a combination of ketamine and xylazine (20 mg.kg^−1 and 10 mg.kg^−1 respectively), and 500 A. caninum L3 in a final volume of […] were applied to the footpad.

With `CC(C)C[C@H](NC(=O)[C@H]1O[C@@H]1C(=O)O)C(=O)NCCCCN=C(N)N` [E64], the “% reduction in proteolytic activity” value in the assay on recombinant Ac-CP-2 (1.0 μg Ac-CP-2, Z-Phe-Arg-AMC, 50 ng pooled IgG or E64 5 μM, mean of triplicate) is 100 ± 0%. Besides, in the assay on recombinant Ac-CP-2 (final concentration of 5 μM), the “cleavage of the peptide substrate, in words” value is on record as “completely ablated”.

B1: Ac-TTR-1: A. caninum transthyretin antigen, SEQ ID NO: 30; E. coli derived, given with SBAS2 (protein, listed as Ancylostoma caninum)
chain: MIQLFLLALVPMCISVREQSIAVKGRLLCGDQPAANVRVKLWEEDTGPDPDDLLDAGYTNSNGEFQLQGGTIETTPIDPVLKIYHDCNDVTGFLSVPKPGSRKVRFSLPDKYISDGMVPKKVMDIGVINLEVEFEKEGREFIVD
Turning to B1, in the assay on A. caninum [1] (one dog with high IgE and IgG1 antibody to TTR), the reduced hookworm burden came out at 6%. For the same molecule, in the assay on A. caninum [1] (versus adjuvant control, hemoglobin P=0.036, hematocrit P=0.009), the “protection against blood loss (hemoglobin, hematocrit)” value is on record as “significant protection against blood loss”.

B2: Ac-ASP-2: A. caninum secreted protein 2, SEQ ID NO: 20; recombinant from Sf9 insect cells, given with AS03 (protein, listed as Ancylostoma caninum)
chain: MLVLVPLLALLAVSVHGNSMRCGNNGMTDEARQKFLDVHNSYRSMVAKGQAKDAISGNAPKAAKMKKMIYDCNVESTAMQNAKKCVFAHSHRKGVGENIWMSTARQMDKAQAAQQASDGWFSELAKYGVGQENKLTTQLWNRGVMIGHYTQMVWQESYKLGCYVEWCSSMTYGVCQYSPQGNNMNSLTYEKGNPCTKDSDCGSNASCSAGEALCVVRG
For the molecule B2, the “IgG1 and IgG2 antibody titers to recombinant Ac-ASP-2, in words” value in the assay with anti-ASP-2 antibodies (immunized canines) is on record as “strong”. Besides, the “IgE titers to Ac-ASP-2, in words” value in the assay on anti-ASP-2 antibodies (test canines) is “one log lower than the IgG1 and IgG2 titers”. Moreover, in assay [2] (geometric mean of group), the “Pre-challenge antibody titer, IgE, GEOMEAN” value is given as 100; the “Pre-challenge antibody titer, IgG1, GEOMEAN” value was 10,837; the “Pre-challenge antibody titer, IgG2, GEOMEAN” value is 20,950. The “IgG1 and IgG2 antibody titers to recombinant Ac-ASP-2, in words” value in assay [2] (immunized canines) was “strong”. In assay [2] (individual dogs), the “Pre-challenge antibody titer, IgE” value was 100; the “Pre-challenge antibody titer, IgG1” value was 13,500 (4×) and 4,500; the “Pre-challenge antibody titer, IgG2” value is 40,500 (2×) and 13,500 (3×). For the same molecule, the “IgE titers to Ac-ASP-2, in words” value in assay [2] (test canines) is “one log lower than the IgG1 and IgG2 titers”. Further, in the assay on A. caninum [3] (5 dogs), the “worm burdens, Maximum” value is on record as 226.00 and the “worm burdens, Minimum” value is given as 89.00. Also, in the assay on A. caninum [3] (5 dogs, ASO3 control 203.8000), the “worm burdens, Mean” value stood at 166.0000. The “worm burdens, Median” value in the assay on A. caninum [3] (5 dogs, ASO3 control 215.0000) is reported as 174.0000. In the assay on A. caninum [3] (group average, AS03 control 5), the “worm burden, Colon, Male, Average” value was found to be 4. The “worm burden, Colon, Female, Average” value with A. caninum [3] (group average, AS03 control 9) amounted to 5. Further, the “worm burden, Intestine, Female, Average” value with A. caninum [3] (group average, AS03 control 95) is listed as 81. Also, the “worm burden, Intestine, Male, Average” value in the assay with A. caninum [3] (group average, AS03 control 96) is on record as 76. For the same molecule, the “worm burden, Total, Average” value in the assay with A. caninum [3] (group average, AS03 control 204) amounted to 166. In the assay with A. caninum [3] (individual dogs), the “worm burden, Colon, Female” value is 5 and 4 and 3 and 8 and 6; the “worm burden, Colon, Male” value is 5 and 4 and 1 (2×) and 9; the “worm burden, Intestine, Female” value is 87 and 101 and 115 and 72 and 28; the “worm burden, Intestine, Male” value was 62 and 72 and 107 and 85 and 54. Further, the “worm burden, Total” value in the assay with A. caninum [3] (individual dogs) was 160 and 181 and 226 and 174 and 89.
